For two substances, stoichiometry N and percent disulfide-linked dimers results are on record in publication PMC6188088.

Experiment [1] concerns the target TnpA^IS1535 C-terminal domain (CTD), residues 51-193 (Mycobacterium tuberculosis). Description: crystal structure; TnpA^IS1535 CTD (51-193), hanging drop, 0.3 M sodium acetate pH 5.0, 1 mM TCEP mixed with 0.2 M sodium citrate + 20% PEG3350; 2.5 Å; one dimer in the asymmetric unit.
For experiment [2], the target named is TnpA^IS1535 single-cysteine mutant Cys162 (three native cysteines replaced with serines) (Mycobacterium tuberculosis). Nature of the experiment: cross-linking; disulfide cross-linking of cysteine-substituted TnpA^IS1535: oxidation with 0.2 mM diamide at 4°C overnight in 25 mM HEPES pH 7.5, 1 M Na acetate, 20% glycerol; non-reducing SDS-PAGE.

Turning to “TnpA^IS1535 C-terminal domain (CTD), residues 51-193 (domain or fragment)”, in experiment [1], the stoichiometry N worked out at 2.
Regarding “TnpA^IS1535 single-cysteine mutant Cys162 (three native cysteines replaced with serines) (enzyme)”, the percent disulfide-linked dimers in experiment [2] turned out to be 40%.

The term stoichiometry N denotes a count of units in the complex or per binding partner.
